Test results published in a protein production outcome set (Wang et al. 2014).

Test: label from the status in PepcDB records
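Also: failed if final PepcDB status was selected cloned or expressed and not failed if soluble or beyond.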

Sequence	protein production
MSYNLNLSHNIYKDAKLGTYYFRITYYDKSNTRKYITRKGFKQRKDAVKKCNEMMDELEGVGHLNRLPFDKLVEEYIDWYSARRKTSSVKALKTHTNNHLLPYFKSMDVFKMTTQDVMKFQNKKLKEGHSGDYLKKMHVYLVSLLNHAMKFHELKQNVASLVGNFEIESQKRLNYWTLEQFNQFYEALATQQQKLFFKLLFYSGARKGEIRALTWRDINFDDDFIHINKTDYHGEVTAPKTKSAIRDIYLPTHMMYDIKDYLIWYKENNIYKDDYVLFGTFYKAYSESTIDRWFTNALKVLDEQLPNGQNFPRIVIHELRHSHASMLVNLGASVMIIAQRLGHSDTTEVYNRYGHLYPSTQKEIVKYL	failed
MHTAICDELGIEFPIFAFTHCRDVVVAVSKAGGFGVLGAVGFTPEQLEIELNWIDEHIGDHPYGVDIVIPNKYEGMDSQLSADELAKTLRSMVPQEHLDFARKILADHGVPVEDADEDSLQLLGWTEATATPQVDAALKHPKMTMVANALGTPPADMIKHIHDSGRKVAALCGSPSQARKHADAGVDIIIAQGGEAGGHCGEVGSIVLWPQVVKEVAPVPVLAAGGIGSGQQIAAALALGTQGAWTGSQWLMVEEAANTAVQQAAYVKATSRDTVRSRSFTGKPARMLRNDWTEAWEQPESPKPLGMPLQYMVSGMAVKATHKYPNETVDVAFNPVGQVVGQFTKVEKTATVIERWVQEYLEATARLDALNAAASV	failed
MTFLPTSLKFFSSLSRASGAVWTEATKRKAPHKPLLLLAVLDLVHRGVITTPFIAVSGDLVELNELFNLYWRRIIPLGQTSSIAFPFSRLAREPFWELVPQPGKNITDAVINNTSSVSYLRKYALGAKLDDGLFRVMASGEGREALREALLLSCFSPEASAQLREQSIINREAFDYSRLLEEQAHLPLVKEIVEADNYRPTVRDQAFRKVVTSAYDHRCALCGIRIVTPDGHTVVEAAHIVPWSRSQNDDIRNGMALCRTCHWGFDEGMLGVSDNYTVITSRSIGIDPNFPGLLQTLSGRGIIPPADPDKFPAREYLAEHRRAWRL	failed
DVARVQRLAAALATAGTVRDVSQAVVAALRRPLRADRIALAELENDRLVVTVLDPPDPESWPELWRLEWRTEWPDAPVRAMPTLAAALREGRARIWPAGTGDLEPALADVGPGGLAVLPLPAGGRMAGACLIGWDTPHDFGPDERALLTASAGLAGQALMRAHAFDAEHELVGMLQRQL	failed
MLRVVSLTLVTLISAVAAAAAEPQAGDDLAICRDRQAELQARAQACDNLLNADRLAGKDKAIALSVRGNTLINKRDYARAIETLSMAVDLDPDNVIVLNLRGLAYERSGKDDLAMADYNLALQKRPTYGVPYNNRGVIHLRRGALQSALDDFNLSIKYTPKFLLGWTNRARVRTLMKDFDGAIADFAEAEKIDPAAPQIAGNRCITWGMMGKYDQAFADCNGLIEKQPKNVYAINNRADVSMMKGDLDAALKDYNSAIQINPNNVRAHSGRGQIYERRKDLAQARADYRAAAYSLTKFDELDVARARAVAQERLAALTPQAPAGATGRRVALVIGNGAYKNVHALPNPPRDSKLIANALRDVGFQTVISVSDLTRDKFFEALQTFAAEAEKADWAVVYYAGHGFEIGGVNYLVPVDAKLAADRDAEAQAVALEQVIAAVGAARKVRLVMLDACRDNPFAPTMQRTLSLKLVDKGFSNIEPGAGFMVVYAAKHGETAMDGDGGTDSPFATALAREIKEPRVEIRKLFDIVRDDVWSATRHEQQPFTYGSPPGREDFYFAAGK	failed
MALILTFLGKSGVARTKIAIAAAKLLASQGKRVLLAGLAEPVLPLLLEQTLTPDPQQIAPNLEVVQFQSSVLLERNWEEVKKLEAQYLRTPIIKEVYGQELVVLPGMDSALALNAIREYDASGKYDAIVYDGTGDAFTLRMLGLPESLSWYVRRFRQLFVNSDLGKTIAESPLIQPLISSFFNVNWTADNFAQPTNQVNNFLDKGKEALADPKRVAAFLVTTADPLEVVSVRYLWGSAQQIGLTIGGVIQVSSQTEGDLSAEFTPLSVTVVPDVTKGDWQPLIDALPNFVEQAEQAPKPITIDTHNRQVRLFLPGFDKKQVKLTQYGPEVTVEAGDQRRNIFLPPALSGRPITGAKFQNNYLIISFLEHHHHHH	not failed
MRDALLGALDAGAVCVNVDLAHAGQQAKLEPDTPYGDALGVGAGRNWAHVNSIAYDAKDDSIILSSRHQGIVKIGRDKQVKWILAPSKGWNKQLASKLLKPVDDHGKPLTCDENGKCKDTDFDFTYTQHTAWLSSKGTLTVFDNGDGRGLEQPALPTMKYSRFVEYKIDEKKGTVQQVWEYGKERGYDFYSPITSVVEYQKDRDTMFGFGGSINLFDVGKPTVGKLNEIDYKTKEVKVEIDVLSDKPNQTHYRALLVHPTQMFKLEHHHHHH	not failed
KSVFPFSNVLKQTLLKRATVFLGVPAIYTAMSKAKIPWYFRWFNRIRLFISGGAPLAEQTILDFKAKFPRAKLLEGYGLSEASPVVAVNTPERQKARSVGIPLPGLEAKAVDEELVEVPRGEVGELIVRGGSVMRGYLNMPAATDETIVNGWLKTGDFVTIDEDGFIFIVDRKKDLIISKGQNVYPREIEEEIYKLDAVEAAAVIGVKDRYADEEIVAFVQLKEGMDLGENEIRRHLRTVLANFKIPKQIHFKDGLPRNATGKVLKRVLKEQFDGNK	failed
GKTFPDVPADHWGIDSINYLVEKGAVKGNDKGMFEPGKELTRAEAATMMAQILNLPIDKDAKPSFADSQGQWYTPFIAAVEKAGVIKGTGNGFEPNGKIDRVSMASLLVEAYKLDTKVNGTPATKFKDLETLNWGKEKANILVELGISVGTGDQWEPKKTVTKAEAAQFIAKTDKQFGTE	not failed
MANGRIEKIGQQLTTPSGYQVLDATGKHVTAGIVDEHSHIAINGGTNEGTDAVTAEVRIGDVINPEDVSIYRALAGGVTSAQLLHGSANPIGGQSQLIKMKWGESAEQLKFANAPASIKFALGENVKQSNWGEKFVQRFPQTRMGVKALFEETFDAALAYENALKDYDDLRSSEKKKTLAPRPSYRLQAVAEVLKQQRDVHIHSYVQSEILMFLRLAEAYRFKVQTFTHVLEGYKVASELAAHGAGASTFADWWAYKFEVYDAIPQNACLMQKQGVLTSINSDDYEMQRRLNQEAAKSMMYCGMSKEDAWNMVTIYPAKQLRVDEYVGSLTPGKMADIVLWNAEPLSIYAKVTHAWVEGKRYFDREQDQLAQQQVVTERAALIQKILSSDDNAKAGEKVTPLNEPQWHCDTHYQAWGQHHQGAK	failed
PNARSQPSKTLFVKGLSEDTTEETLKESFDGSVRARIVTDRETGSSKGFGFVDFNSEEDAKAAKEAMEDGEIDGNKVTLDWAKPKGEGG	not failed
RGRGGTGGARRLSCGARRRAARGTSPGRRLSTAWSQPQPPPEEYAGADDVSQSPVAEEPSWVPSPRPPVPHESPEPPSGRSLVQRDIQAFLNQCGASPGEARHWLTQFQTCHHSADKPFAVIEVDEEVLKCQQGVSSLAFALAFLQRMDMKPLVVLGLPAPTAPSGCLSFWEAKAQLAKSCKVLVDALRHNAAAAVPFFGGGSVLRAAEPAPHASYGGIVSVETDLLQWCLESGSIPILCPIGETAARRSVLLDSLEVTASLAKALRPTKIIFLNNTGGLRDSSHKVLSNVNLPADLDLVCNAEWVSTKERQQMRLIVDVLSRLPHHSSAVITAASTLLTELFSNKGSGTLFKNAERMLRVRSLDKLDQGRLVDLVNASFGKKLRDDYLASLRPRLHSIYVSEGYNAAAILTMEPVLGGTPYLDKFVVSSSRQGQGSGQMLWECLRRDLQTLFWRSRVTNPINPWYFKHSDGSFSNKQWIFFWFGLADIRDSYELVNHAKGLPDSFHKPASDPGS	failed
MNLPPNPVIARGRGRGRKPNNVEANRGFAPSLGQKSDPSHSEGNQASGGNGGGGDAQVGPSIEKSSLSAVQMHKSEGDPRGSVRGRRLITDLVYSRPPGMTSKKGVVGTHITVQANYFKVLKRPNWTIYQYRVDFTPDVEATRLRRSFLY	failed
MRRSMRMNMSVASNIHSLLARLLPERVIAPPAPAGRRQRLFSGVGLPSQRSLLVNRLDEANDLQAVYVDLRRQALQGSVSALNDLGWIWLNGKYWRADTVLAGHLLRMAALQGNAAAWFNLGQQHYFGKGIDPSYVQAAECYRQAFDRGMLHAAAALGDLYEEEVCDGDLEWQVDLVQAYQWFLRGAEQGEARCRFEMGYRLMHGLHVEANLKAALYWLELAAAAGVVQAAEELAVHFSSRDAVRYQEWRDRAVQMGSTLALTMKLEDQIHP	failed
MKTKIAYEEVAGMLNQWYVMIKRHEVSQAVSIKCDIEHQLPNMEENQDLLLYFNLLDYRHKLLTEEFAASNKLFEDIQEQKADMQSTDDMIEYYYFFFAGMYEFHKKDYTNAINYYKLAEEKLRTIPDQIEIAEFHYKLAIAYYQIKQNFLSLNHAKTALKTFKAHDDYIQKAISNDMLIGANKLDLFRFDEAEQHYKQALKDAALIKHHVLLGMAHHNLGLSYVNRNLLTLAEHHFKEALLIKEHEESVYGIHSMFELTHVLYKSNVVKEARKLYEKGFFRAEKAGEREYLSKFKLIHALYDEQDPLTVEHALEYLKTINLWTDVAELTFDIALYYKENGDADKAAEYFEESHHARDQILKRTEELK	failed
TIDRDIQWAAQNAITEQVEKSGADRGYVMVQDTRTGEILAMANSPGFDPNDLSKASSAALGNAALQDAYEPGSTAKVMSMAAVLEENVATPETHVVVPNRLHRGDRLFQDDIDHPTWNLTLNGVLAKSSNIGTILAAGQLGKTQKQANEVLYSYMRKFGIGLPTGLGFPGETSGILAPAAKWSTSQQYTIPFGQGVSINAMQAASVYSTIANGGVRVEPTLVRGTKGPDGRFTPAPRPKKTRVVSEKTAKTLAQMLESVVDDEEGTGAKARIPGYRVAGKTGTANRVDPATGKYHGYTSSFAGFAPADNPRITVYCAIQNATQGSYFGGQICGPIYKQVMEFALKTLQVPPTGAGAAHLPVTFTP	failed
TVLYVHGGAWFQDPLENHFEYLDLLVDALDARVIMPVYPKIPHRDYRTTFELLTKIYKRLLTKIDEPENLVIIGDSAGGQIALAFAQMLKKEQLSQPGHIVLISPVLDATFKNPEARKYEKEDPMLGIDGSKYLVELWAGDAPLDDYKMSPMNGDLEGLGHITLTVGTKETLYPDAVKFSHMLNDKGIKHQFIPGYNLFHIYPLFPIPERQRFLEQLKKIIVTKEL	failed
MHHWVQASSSDFSGTPPQARSGHTAVNVGKSMVVVFGGLVDKKFLSDIIVYDIENKLWFEPECTGSESEGQVGPTPRAFHVAITIDCHMFIFGGRSGGKRLGDFWVLDTDIWQWSELTSFGDLPTPRDFAAAAAIGSQKIVLCGGWDGKKWLSDVYVMDTMSLEWLELSVSGSLPPPRCGHTATMVEKRLLVFGGRGGGGPIMGDLWALKGLIDEERETPGWTQLKLPGQAPSSRCGHTVTSGGHYLLLFGGHGTGGWLSRYDVYYNDTIILDRVTAQWKRLPIGNEPPPPRAYHTMTCIGARHLLIGGFDGKLTFGDLWWLVPEDDPIAKRSSVPQVVNPPEIKESERELDKERGQDGFSIVDLQQKMGISVSSGLRLQIPEESEDQEFVELGTRLIEGDVVDERASMIQMAAQALRQHWKQSTPRTLQLKELGSLLRDYQRLVTRIFTTQSSLTSADFGLPGTKTFTFYHIKSSSELRINDISKLLEEYKTLVI	not failed
LADGDFIDLDWHGPHQPHAPLVIVLHGLTGSSHSPYVKGLQQALQDRGWASVAVNWRGCSGEPNLLPRSYHSGASEDLAEIVSHLRAQRPLAPLYAVGYSLGGNVLLKYLGESGVASQLEAAAAVSVPFRLDHCADRIGQGFSKVYQAHFMREMLAYVQLKQRHFHARGQHEQLATLERLGQLTNLRTFWDFDGKVTAPLNGFRDAHDYYRRSSSHFFLGQNRTPTLIIHSSDDPFVSSHSLPTARELSPQTRFELHDRGGHVGFVDG	failed
